# B1: NGF: mouse nerve growth factor (protein, UniProt P01139 122-241, looked up)
# Beta-nerve growth factor: SSTHPVFHMGEFSVCDSVSVWVGDKTTATDIKGKEVTVLAEVNINNSVFRQYFFETKCRASNPVESGCRGIDSKHWNSYCTTTHTFVKALTTDEKQAAWRFIRIDTACVCVLSRKATRRG
# B2: BDNF: brain derived neurotrophic factor (porcine in Table VI) (protein, UniProt P14082 134-252, looked up)
# Neurotrophic factor BDNF: HSDPARRGELSVCDSISEWVTAADKKTAVDMSGGTVTVLEKVPVSKGQLKQYFYETKCNPMGYTKEGCRGIDKRHWNSQCRTTQSYVRALTMDSKKRIGWRFIRIDTSCVCTLTIKRGR
# modifications: Neurotrophic factor BDNF
# Tests used:
# [1] = tested on: Ventral spinal cord neurons; test: Choline acetyltransferase (CAT) activity in ventral spinal cord cultures; format: cell-based, rat; conditions: CNTF 10 ng/ml, NGF 50 ng/ml, FGF 50 ng/ml at plating; after 7 days in culture
# Protocol: (§1) Sprague-Dawley rats (HSD or Zivic-Miller) were used for all experiments. Pregnant rats (E14) were sacrificed as described in 10.1.1.
# Spinal cords were removed aseptically from rat embryos as described in 10.1.2. The cord tissues were minced into small pieces and incubated in 0.1% trypsin (GIBCO) and 0.01% deoxyribonuclease type 1 (Sigma) at 37° C. for 20 minutes. Trypsin solution was then removed, rinsed and replaced with medium consisting of 45% Eagle's minimum essential medium (MEM), 45% Ham's nutrient mixture F12 (F12), 5% fetal calf serum (GIBCO), 5% horse serum (GIBCO) glutamine (2 mM), penicillin G (0.5 U/ml), and streptomycin (0.5 ug/ml). This was then mechanically dissociated twice by gentle trituration through a Pasteur pipet in the same medium, and the supernatants were pooled and filtered through a nylon filter (Nitex, Tetko; 40 um). Total cell number yielded was determined by hemocytometer counting in the presence of trypan blue. Dissociated ventral cells were then plated at a density of approximately 50,000 cells/cm^2 on dishes coated with poly-L-ornithine (10 ug/ml) and laminin (5 ug/ml). Treatments were given on the day of plating, except for delayed addition experiments in which treatments were given on days 2 or 6. Cultures were maintained at 37° C. in 95% air/5% CO2 atmosphere at nearly 100% relative humidity. Culture medium was changed every 3 to 4 days. A mitotic inhibitor, cytosine arabinoside (Ara C; 0.5 uM), was added on day 2 to reduce the number of nonneuronal cells. On day 7, cells were harvested for measurements of choline acetyltransferase (CAT; Fonnum, 1975 J. Neurochem. 24:407-409) and protein (Bradford, 1976, Annal. Biochem. 72:248-254) levels or fixed in 4% paraformaldehyde for NF assay (Doherty et al., 1984, J. Neurochem. 42:1116-1122) and immunocytochemistry. Some cultures were grown in defined medium consisting of 50% F12 and 50% MEM, glutamine (2 mM), insulin (5 ug/ml), transferrin (100 ug/ml), progesterone (20 nM), putrescine (10 uM), and sodium selenite (30 nM) (Bottenstein and Sato, 1979, PNAS 76:514-517). In these cultures sera-containing medium was replaced with defined medium on day 1.
# Cultures were harvested by lysing the cells in a 20 mM Tris-HCl (pH 8.6) solution containing 0.1% Triton X-100. Two microliters of the cell lysate was removed and assayed for CAT activity according to the micro-Fonnum procedure (Fonnum, 1975, J. Neurochem. 24:407-409). The final substrate composition consisted of 0.2 mM [1-^14C] Acetyl-CoA (NEN, 54.4 mCi/mmol), 300 mM NaCl, 8 mM choline bromide, 20 mM EDTA, and 0.1 mM neostigmine in 50 mM NaH2PO4 (pH 7.4) buffer. At these enzyme and substrate concentrations, the enzymatic reaction was linear for 90-120 minutes. The specificity of the induction for CAT was tested by the addition of a specific inhibitor of CAT activity, N-hydroxyethyl-4-(1-napthylvinyl) pyridium (HNP), during the assay (White and Cavallito, 1970, J. Neurochem. 17:1579-1589).
# [2] = tested on: Mediodorsal (MD) spinal cord neurons; test: E14 rat mediodorsal spinal cord neuron cultures in defined medium; format: cell-based; conditions: CNTF 2 μl/ml (recombinant rat, E. coli extract), NGF 50 ng/ml at plating; day 7; Bradford
# Excerpt: (§2) Sprague-Dawley rats (HSD) were used for all experiments. Pregnant rats were sacrificed by carbon dioxide asphyxiation, and the embryos were rapidly removed and placed in ice-cold Puck's saline G for further dissection.
# (§3) Spinal cords were removed aseptically from rat embryos on the 14th day of gestation. The spinal cord was severed caudal to the bulb, freed of sensory ganglia and meninges. The cord was then subdivided into ventral and mediodorsal segments for separate cultures. The cord tissues were minced into small pieces and mechanically dissociated by trituration through a Pasteur pipet in defined culture medium consisting of 50% basal medium Eagle (BME; Gibco) and 50% Ham's nutrient mixture F12 (Gibco) supplemented with glucose (33 mM), glutamine (2 mM, NaHCO3 (15 mM), HEPES (10 mM), insulin (25 μg/ml), transferrin (100 μg/ml) putrescine (60 μM), progesterone (20 nM), Na selenite (30 nM), penicillin G (0.5 μg/ml), streptomycin (0.5 μg/ml), and bovine serum albumin (2.5 μg/ml). Trituration was repeated twice and the supernatants were pooled and filtered through a nylon (Nitex, Tetko) filter (40 μm). Total cell number yielded was determined by hemocytometer counting in the presence of trypan blue. Dissociated ventral cells were then plated at a density of 0.5 million cells/35 mm dish coated with poly-D-lysine (10 μg/ml). Dissociated mediodorsal cells were plated at a density of 1.5 million/35 mm dish coated with poly-D-lysine (10 μg/ml), poly-L-ornithine (10 μg/ml), or poly-L-ornithine with laminin (5 μg/ml). Treatments to these cultures were added at the time of plating. Cultures were maintained at 37° C. in a 95% air/5% CO2 atmosphere at nearly 100% relative humidity. Culture medium was changed every three to four days.
# [3] = tested on: Ventral spinal cord neurons; test: Neurofilament (NF) assay in ventral spinal cord neuron cultures; format: cell-based, rat; conditions: CNTF 10 ng/ml, NGF 50 ng/ml at plating; day 7
# Protocol: as §1
# Spinal cords were removed aseptically from rat embryos as described in 10.1.2. The cord tissues were minced into small pieces and incubated in 0.1% trypsin (GIBCO) and 0.01% deoxyribonuclease type 1 (Sigma) at 37° C. for 20 minutes. Trypsin solution was then removed, rinsed and replaced with medium consisting of 45% Eagle's minimum essential medium (MEM), 45% Ham's nutrient mixture F12 (F12), 5% fetal calf serum (GIBCO), 5% horse serum (GIBCO) glutamine (2 mM), penicillin G (0.5 U/ml), and streptomycin (0.5 ug/ml). […] Total cell number yielded was determined by hemocytometer counting in the presence of trypan blue. […]
# After fixation of the cells in 4% paraformaldehyde at 4° C. for 2 hours, the cultures were then permeabilized and blocked according to the procedures described in Doherty et al. (1984, J. Neurochem. 42:1116-1122). Neurofilament protein was detected using a monoclonal antibody RT97 (Wood and Anderton, 1981, Biosci. Rep. 1:263-268) at a 1:1000 dilution. The reaction product was visualized using O-phenylenediamine (OPD) as a substrate and optical density was measured at 490 nm.
# [4] = tested on: Ventral spinal cord neurons; test: E14 rat ventral spinal cord neuron cultures in defined medium; format: cell-based; conditions: CNTF 2 μl/ml, NGF 50 ng/ml at plating; day 7
# Excerpt: as §2, §3
# [5] = tested on: GABAergic neurons (hippocampal cultures); test: Effect of other neurotrophic factors on GABAergic hippocampal neurons in culture; format: cell-based, rat
# Protocol: Hippocampi were dissected from E18-19 rat embryos of Sprague-Dawley rats, and collected in F10 medium. The tissues were minced, rinsed twice with F10 medium (Gibco) and trypsinized with 0.25% trypsin (Gibco) for 20 minutes at 37° C. Trypsin was inactivated by the addition of a serum-containing medium composed of minimal essential medium (MEM) supplemented with fetal calf serum (FCS, 10%), glutamine (2 mM), penicillin (25 U/ml) and streptomycin (25 ug/ml). Dissociated cells obtained by gentle trituration were collected and centrifuged at low speed (500 rpm) for 30 seconds. The centrifugation was repeated twice, and the cell pellets were then resuspended in serum-containing medium. The cells were then plated onto 6 mm wells or 35 mm dishes that were coated with polyornithine (10 ug/ml) and laminin (10 ug/ml). In most of the experiments, the cells were plated at a low density of approximately 71,000 cells/cm^2. Five to six hours following the plating of cells, medium was changed to a serum-free medium containing 1% N3 and penicillin-streptomycin (25 units/ml and 25 ug/ml, respectively), at which time CNTF was added. Medium was changed every three to four days, with re-addition of the factor. […]
# [6] = tested on: AchE-containing ventral spinal cord neurons; test: Count of AchE-containing neurons in ventral spinal cord cultures; format: cell-based, rat; conditions: CNTF 10 ng/ml at plating; 7 days
# Protocol: as §1
# Spinal cords were removed aseptically from rat embryos as described in 10.1.2. The cord tissues were minced into small pieces and incubated in 0.1% trypsin (GIBCO) and 0.01% deoxyribonuclease type 1 (Sigma) at 37° C. for 20 minutes. Trypsin solution was then removed, rinsed and replaced with medium consisting of 45% Eagle's minimum essential medium (MEM), 45% Ham's nutrient mixture F12 (F12), 5% fetal calf serum (GIBCO), 5% horse serum (GIBCO) glutamine (2 mM), penicillin G (0.5 U/ml), and streptomycin (0.5 ug/ml). This was then mechanically dissociated twice by gentle trituration through a Pasteur pipet in the same medium, and the supernatants were pooled and filtered through a nylon filter (Nitex, Tetko; 40 um). Total cell number yielded was determined by hemocytometer counting in the presence of trypan blue. Dissociated ventral cells were then plated at a density of approximately 50,000 cells/cm^2 on dishes coated with poly-L-ornithine (10 ug/ml) and laminin (5 ug/ml). Treatments were given on the day of plating, except for delayed addition experiments in which treatments were given on days 2 or 6. Cultures were maintained at 37° C. in 95% air/5% CO2 atmosphere at nearly 100% relative humidity. Culture medium was changed every 3 to 4 days. […]
# [7] = tested on: chick embryonic spinal motorneurons; test: Survival of chick embryonic spinal motorneurons in culture; format: cell-based; design: key to Survival: −: not significantly different from control (survival: 8.3 ± 3.8%, mean ± SD, n = 18); ±: about 15-20% (statistically significant from each blank control, p < 0.01); + +: about 35-55%; + ++: about 55-75%
# Protocol: Motorneuron columns were dissected under a stereomicroscope from the lumbar part of the spinal cord of chick embryos on the 6th day of embryonic development and stored in cold calcium and magnesium-free Hanks balanced salt solution supplemented with glucose (4 g/l) (HBSS). The tissues were washed with HBSS and treated with 0.03% trypsin in HBSS at 37° C. for 20 min with gentle shaking, rinsed with cold HBSS and triturated mildly in 3 steps of 8-passage agitation in 1 ml of cold 0.1% soybean trypsin inhibitor (Sigma) in HBSS through a fire-polished siliconized Pasteur pipette. Each supernatant cell suspension was filtered through 50 μm-Nylon mesh, pooled and layered onto 4 ml of cold 6.8% metrizamide (Fluka) in HBSS-25 mM HEPES (pH7.4) in a 12 ml-siliconized conical glass tube. The tube was centrifuged at 400 g for 15 min at 4° C. and the intermediate layer (0.5 ml) was collected into another siliconized tube containing 6.5 ml of cold culture medium (a mixture of glucose (4 g/l)-supplemented Leibovitz's L-15 medium (Gibco), 0.15 M sodium bicarbonate, heat-inactivated and filtered horse serum and penicillin G (10^5 units/ml) at the ratio of 75:15:10:0.1, freshly prepared and buffered with 5% CO2.) After centrifugation at 100×g for 7 min at 4° C., the supernatant was removed and the cells were gently resuspended in culture medium and plated in Greiner 4-well culture dishes (well diameter, 10 mm; C. A. Greiner und Sohne GmbH, Nurtingen, West Germany) at 1000-2000 cells/well. The dishes had been precoated with poly-DL-ornithine (Sigma, 0.5 mg in 0.15 M sodium borate buffer (pH 8.3) overnight at 4° C., rinsed twice with phosphate-buffered saline (PBS) and subsequently coated with laminin (Gibco; 10 μg/ml in the serum-depleted culture medium) and placed in a 5% CO2-incubator until cell plating (5-6 hrs). Cells were incubated at 37° C. in a humidified 5% CO2- and 95% air-incubator. Samples were added one hr after plating and the culture medium changed after 24 hrs and 72 hrs. The initial cell numbers were counted 3 hrs after plating.
# In some experiments motor neurons were retrogradely labeled with a fluorescent dye in vivo before cell preparation (U. Dohrman et al., 1986, Dev. Biol. 118:209-221) to identify the motor neuron cell population. A small hole was made in the shell of eggs which had been incubated for 5 days. Small pieces of rhodamine isothiocyanate crystals (Sigma) were inserted at two or three places into each hind limb thigh and the egg hole was sealed with a cellophane tape. The eggs were incubated for another 24 hrs. Some of the operated embryos were then processed for frozen sections after formaldehyde fixation. […] The other embryos were used for cell preparation using the method described above (18.1.1). After 5 hrs in culture cells were rinsed with warm HBSS, fixed with 4% formaldehyde in PBS at room temperature for 20 min, rinsed with PBS and then mounted in glycerol-PBS (1:1) with glass coverslips. Of the total cells approximately 83% were labeled and identified as motorneurons (FIG. 42.) Most of these labeled motorneurons were large cells and the rest were intermediate-size cells. No small cells were labeled. On the other hand, in experiments in which cells were not labeled with a fluorescent dye about 70% of the total cells were large phase-bright cells with round cell somas, about 20% were intermediate-size neurons (most of them may be motorneurons) and about 10% were small immature neurons (they have neuron-like processes with growth cones but have phase-dark semi-flat cell somas). Non-neuronal cells were either not present or accounted for less than 2%. Taken together, one may conclude that at least 83% of the cells are motorneurons while the remainder consists of non-labeled motorneurons, a small number of unidentified intermediate-size neurons and about 10% immature small neurons. […]
Molecule,increase in CAT activity [1],μg protein dish [2] [μg protein dish],increase in NF content versus untreated controls [3],CAT Activity [4] [CPM/dish],Protein [4] [μg/dish],effect on / survival of GABAergic neurons [5],increase in AchE-positive neurons versus untreated controls [6],"Survival ([7]; after 3 days in culture, one concentration per molecule, Table VI, CNTF rat, rec.)","survival effect on motoneurons ([7]; supramaximal concentrations, NT-3 produced by transfected Cos-cells)"
B1,no effect,20,did not produced any significant effect,621.25 ± 33.59,38,not able to detect any effect,small effect,,
B2,,,,,,does not seem to promote the survival,,−,no discernable effect
